# Assay results: article PMC5131902, “Pheromone Recognition and Selectivity by ComR Proteins among Streptococcus Species” (PLoS Pathogens, 2016)
# Read-outs that look alike come from different tables or passages of the source. Ends that are not written are not given here.
# Legend:
# [1] = molecular target: ComR S. suis 05ZYH33 (residues 1–304), wild-type (Streptococcus suis 05ZYH33)
# [2] = molecular target: ComR S. suis N220A (Streptococcus suis 05ZYH33); assay: ITC; 300 μM XIP injected into 20 μM ComR; VP-ITC, 25°C; 20 mM Tris pH 7.5, 100 mM NaCl, 1 mM β-ME; one-site model
# [3] = molecular target: ComR S. suis 05ZYH33 (residues 1–304), wild-type (Streptococcus suis 05ZYH33); assay: as above
# [4] = test system: S. agalactiae 2603 v/r ComR; assay: S. mutans ES1 test-bed PcomS::luxAB luciferase reporter assay; assay type: cell-based; settings: synthetic peptides titrated to ES1 reporter strain carrying ComR S. agalactiae 2603
# Text: (§1) The entire known SigX regulon, as well as the proximal transcriptional regulator of sigX, ComR, is conserved throughout the Mutans, Bovis, and Pyogenic groups (Fig 1, top). Additionally, within these groups, the mature form of the peptide pheromone ComS contains a conserved double-tryptophan motif (‘WW’) (Fig 1, bottom). This led us to ask whether the putative ComRs encoded by members of these groups could respond to cognate and heterologous XIPs to activate comS and sigX transcription. To test this possibility, we developed a strain that would allow for control of the ComR and XIP variants present within the system. […] Additionally, when a multi-copy plasmid carrying wild-type comR was provided to a ΔcomR strain, the ability to naturally transform exogenous genomic DNA was rescued. With these observations in mind, we created an S. mutans UA159 ‘test bed’ strain, ES1, in which the endogenous comRS locus was replaced with a spectinomycin-resistance cassette (Fig 2A). Because this strain contains neither comS nor comR, it is unable to produce or respond to XIP pheromones. A plasmid was used as a vehicle to provide different comR variants, under control of the native promoter, with adjoining comR-comS intergenic regions containing ComR binding sites and the comS promoter. The plasmid also contains the bacterial luciferase genes, luxAB, under transcriptional control of the cloned comS promoter. Clones harboring each comR-variant plasmid were constructed, grown, and treated with titrations of synthetic XIP peptides. Since productive interaction between ComR and XIP results in transcriptional activation of the comS promoter, we could test the functionality of ComR–XIP interactions by assessing the specific bioluminescent activity of each culture. To ensure that the test bed recapitulated observed results seen in wild-type S. mutans UA159, we assessed the UA159 ComR with serial dilutions of the cognate XIP-C7 (the C-terminal seven amino acids of ComS) and measured bioluminescence levels (Fig 2B).
# (§2) Predicted XIP peptide sequences were determined by identifying open reading frames downstream from the putative ComR gene by using NCBI BLAST to identify UA159 ComR homologues. One to three different lengths of peptide from each species were ordered from NeoScientific (Woburn, MA). Peptide crude extracts (purity 45–75%) were dissolved in DMSO (Fisher Scientific, Hampton, NH) at a concentration of 1 mM based upon the specific purity and stored at -20° C.
# (§3) Starter cultures, from cultures stored in 20% glycerol at -80° C, of each ComR reporter strain were diluted to an OD600 of 0.05 in CDM + erm and incubated at 37° C until an OD^600 of ~0.1. 190 uL aliquots of reporter strain cell culture were added to wells within a 96-well (Greiner Bio-One; Monroe, NC) lidded, clear, flat-bottom plate, each containing 10 μL of DMSO or a 5x-serial dilution of the peptide of interest in DMSO (final concentration of 5% DMSO/well). Concentrations tested for each peptide were 1.3 nM, 6.4 nM, 38.6 nM, 231.5 nM, 1388.9 nM, […], and 50 μM. […] Prepared plates were lidded and sealed with Parafilm (Bemis, Oshkosh, WI) before incubation at 37° C, with continuous shaking, in a Synergy 2 plate reader (Biotek). OD600 and luminescence readings were measured every 15 min. over a 4-hr period. The maximum RLU measurement per well, between 60–240 minutes was recorded using Gen5 data analysis software. […]
# [5] = molecular target: ComR S. bovis SboB (Streptococcus bovis SboB)
# [6] = molecular target: ComR S. dysgalactiae subsp. equisimilis ATCC35666 (Streptococcus dysgalactiae subsp. equisimilis ATCC35666)
# [7] = molecular target: ComR S. pyogenes MGAS5005 (Streptococcus pyogenes MGAS5005)
# [8] = molecular target: ComR S. bovis 83 (Streptococcus bovis Sbo 83)
# [9] = test system: S. suis S10 (serotype 2); settings: cited from earlier work
# Text: One observed difference from published ComR/XIP behavior was for the two S. pyogenes strains used in our study, MGAS5005 (serotype M1) and MGAS315 (serotype M3).
# [10] = molecular target: S. mutans UA159 ComR (Streptococcus mutans serotype c, UniProt Q8DWI6); assay: S. mutans ES1 test-bed PcomS::luxAB luciferase reporter assay; assay type: cell-based
# Text: as §1, §2, §3
# [11] = molecular target: ComR S. mutans UA159 (Streptococcus mutans UA159)
# [12] = molecular target: ComR S. mutans UA159 (Streptococcus mutans UA159); remark: listed apart in the source
molecule,measurement,setting,value
S. suis 05ZYH33 XIP-C7 (peptide),EC50 of P comS::luxAB luciferase activity in the S. mutans ES1 test bed,[1],93 nM
same,Kd,[2],13700 nM
same,dH,[2],-7.28 kcal/mol
same,stoichiometry N,[2],1.09
same,Kd,[3],862 nM
same,dH,[3],-13.6 kcal/mol
same,stoichiometry N,[3],0.96
"TGWWMLG [EBS2, designed XIP agonist of ComR S. agalactiae 2603, TGWWMLG]","reporter induction of ComR S. agalactiae 2603 (maximum relative luciferase activity), in words",[4],robust reporter induction
"ETEWWNVG [EBS3, designed XIP of eight residues for ComR S. agalactiae 2603, ETEWWNVG]","reporter induction of ComR S. agalactiae 2603 (maximum relative luciferase activity), in words",[4],did not elicit strong reporter activity
"TMGWWGL [NEM316 XIP, putative Type-II XIP of S. agalactiae strain NEM316, TMGWWGL]","reporter induction of ComR S. agalactiae 2603 (maximum relative luciferase activity), in words",[4],unable to activate
S. bovis SboB XIP-C7 (peptide),EC50 of P comS::luxAB luciferase activity in the S. mutans ES1 test bed,[5],< 1 nM
S. dysgalactiae subsp. equisimilis ATCC35666 XIP-C7 (peptide),EC50 of P comS::luxAB luciferase activity in the S. mutans ES1 test bed,[6],15000 nM
same,increase in reporter activity at 50 μM XIP,[6],10 fold
S. pyogenes MGAS315 XIP-C8 (peptide),"P comS::luxAB transcription at 50 μM XIP, relative to the maximum with the cognate XIP",[7],25%
S. bovis 83 XIP-C7 (peptide),EC50 of P comS::luxAB luciferase activity in the S. mutans ES1 test bed,[8],< 1 nM
S. pyogenes MGAS5005 XIP-C8 (peptide),EC50 of P comS::luxAB transcription in the S. mutans ES1 test bed,[7],250 nM
same,increase of P comS::luxAB transcription at 50 μM XIP,[7],25 fold
"LDWWSLG [EBS1, designed XIP agonist of ComR S. agalactiae 2603, LDWWSLG]","reporter induction of ComR S. agalactiae 2603 (maximum relative luciferase activity), in words",[4],robust reporter induction
GNWGTWVEE [XIP-C9],transformability upon addition of XIP length variant,[9],highest transformability
GLDWWSL [UA159 C7],EC50,[10],0.17 nM
GLDWWSL [S. mutans UA159 XIP-C7],Kd,[2],6060 nM
same,dH,[2],-4.26 kcal/mol
same,stoichiometry N,[2],0.95
same,Kd,[3],5880 nM
same,dH,[3],-6.01 kcal/mol
same,stoichiometry N,[3],1.03
same,EC50 of P comS::luxAB luciferase activity in the S. mutans ES1 test bed,[11],0.2 nM
same,"maximal induction of luciferase activity in the test bed, at 2 nM XIP",[11],140 fold
same,EC50 of P comS::luxAB luciferase activity in the S. mutans ES1 test bed,[12],88 nM
